In US9540337B2, “Gamma-glutamyl transpeptidase inhibitors and methods of use” (The Board of Regents of the University of Oklahoma, priority 2012, dated 2017):

Experiments:
[1] = test system: T1, N[C@H](CCC(=O)Nc1ccc([N+](=O)[O-])cc1)C(=O)O; test: Initial rate studies with D-GpNA and L-GpNA, with or without acceptor GlyGly; assay type: biochemical, human; details: pH 7.4, 37.0 °C
T1 construct: lacking the transmembrane domain; made in house; host or cells: Pichia pastoris
Method: (§1) Transpeptidation Reaction: The same assay buffer was used for both the hydrolysis reaction and the transpeptidation reaction. The transpeptidation reaction included 40 mM glycylglycine (glygly, Sigma, St. Louis, Mo.) as the acceptor. The concentration of the substrate for the transpeptidation reaction, L-GpNA (Sigma) was varied from 0.25 mM to 3 mM. The concentration of L-GpNA was 3 mM for experiments in which the concentration of glygly was varied. To initiate the transpeptidation reaction, 4 mU GGT were added.
(§2) 1. […] 2, which describes a ping pong kinetic mechanism. […] 3 and 4. […] 5 (25).
(§3) In eq. […] Data for noncompetitive inhibition were fitted to eq. 6. […] 6 [25].
(§4) Initial Rate Studies with D-GpNA and L-GpNA: In this study, the inhibition of both the GGT hydrolysis and transpeptidation reactions by OU749 and a new series of thiadiazol sulfonamide analogs was studied. The hydrolysis and transpeptidation reactions were analyzed separately by using different stereo-isomers of the γ-glutamyl-p-nitroanilide (GpNA) substrate. The kinetics of both reactions were first characterized in the absence of inhibitors. Cleavage of the γ-glutamyl bond of either D-GpNA or L-GpNA releases p-nitroanaline, which has an OD405 of 7,680 M^−1 cm^−1, allowing for the reactions to be monitored continuously with high sensitivity. The D-glutamyl isomer of GpNA was used as the substrate for the hydrolysis reaction, in which water serves as the acceptor. The L-glutamyl isomer of GpNA, with glycylglycine (GlyGly) as an acceptor, was used for the transpeptidation reaction. L-GpNA can serve as both a substrate and a low affinity acceptor, while D-GpNA is unable to serve as an acceptor (18, 21, 26). Therefore, in the absence of an added acceptor GGT exclusively catalyzes a hydrolysis reaction with D-GpNA as the substrate. When L-GpNA is used as a substrate, the GGT reaction is a mixture of both the hydrolysis and transpeptidation reactions. Under these conditions, the rate of the reaction is the sum of hydrolysis and transpeptidation reactions, with the hydrolysis reaction contributing more at low L-GpNA concentrations and transpeptidation dominating at saturating substrate concentrations. […] However, the maximum rate (Vmax) obtained with L-GpNA was approximately 3-times faster than that measured with D-GpNA, and the KGpNA for L-GpNA was 5-times higher than that measured for D-GpNA. This is at least partially due to the ability of L-GpNA to serve as an acceptor, resulting in a transpeptidation reaction, which is faster than the hydrolysis reaction. Therefore, to study the hydrolysis reaction in isolation, D-GpNA was used as the substrate without any added acceptor.

[2] = test system: T2, N[C@@H](CCC(=O)Nc1ccc([N+](=O)[O-])cc1)C(=O)O; test: as above; assay type: biochemical, human; details: pH 7.4, 37.0 °C
T2 construct: lacking the transmembrane domain; made in house; host or cells: Pichia pastoris
Method: as §1, §2, §3, §4

Human GGT1 (Homo sapiens), sequence (chain, as listed by the source): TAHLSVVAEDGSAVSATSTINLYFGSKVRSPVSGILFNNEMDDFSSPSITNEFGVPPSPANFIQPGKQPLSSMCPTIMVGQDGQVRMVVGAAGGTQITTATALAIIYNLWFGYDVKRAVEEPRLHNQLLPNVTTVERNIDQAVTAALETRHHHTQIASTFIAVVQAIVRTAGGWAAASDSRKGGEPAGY
Human GGT1 (Homo sapiens), sequence (chain, as listed by the source): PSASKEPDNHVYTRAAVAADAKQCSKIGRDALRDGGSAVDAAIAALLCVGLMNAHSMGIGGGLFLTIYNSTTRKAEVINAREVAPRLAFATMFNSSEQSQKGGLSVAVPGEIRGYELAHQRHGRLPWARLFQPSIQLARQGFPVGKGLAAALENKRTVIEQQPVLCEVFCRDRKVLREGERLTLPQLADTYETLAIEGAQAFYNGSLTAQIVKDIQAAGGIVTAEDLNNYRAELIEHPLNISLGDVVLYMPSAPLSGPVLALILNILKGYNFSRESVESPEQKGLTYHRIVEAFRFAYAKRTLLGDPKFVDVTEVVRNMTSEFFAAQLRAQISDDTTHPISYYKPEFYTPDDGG

Human GGT1 (Homo sapiens) showed a Km ([1]; other: minus acceptor) of 160 ± 20 µM, a Km ([1]; other: plus acceptor GlyGly) of 4200 ± 100 µM and a Km ([2]; other: minus acceptor) of 830 ± 60 µM. It also gave a Km ([2]; other: plus acceptor GlyGly) of 1200 ± 100 µM.
